Measurements: patent US12226454B2, “Pharmaceutical compositions and use thereof for relieving anticancer drug resistance and enhancing sensitivity of anticancer drug” (Rise Biopharmaceuticals Inc., priority 2015, dated 2025)

B1: RISE P-8: chemokine analogue peptide, SEQ ID NO: 1; analogous protein of CXCL8 (IL-8), antagonist of CXCR1 and CXCR2 (protein)
chain: GSKELRCQCIRSYSKPFHPKFIKELRVIPASQFCANTEIIVKLSDGRELCLDPKENWVQRVVEKFLKRAENS
modifications: RISE P-8
notes: analogous protein of CXCL8 (IL-8), antagonist of CXCR1 and CXCR2

Tests used:
[1] = tested on: IL-8, CXCR1 and CXCR2 mRNA in HCC827GR; assay: Real-time PCR gene expression in HCC827GR; type: cell-based, human
Excerpt: (§1) 18 s was used as an internal loading control.
That is to say, RISE P-8 can compete with IL-8 and attenuate its feedback to regulate gene expression of IL-8, CXCR1 and CXCR2 decreased.

[2] = tested on: IL-8, CXCR1 and CXCR2 mRNA in PC9GR; assay: Real-time PCR gene expression in PC9GR; type: cell-based, human; conditions: 5 μM Gefitinib, 24 hrs
Excerpt: as §1
[…]. […] That is to say, RISE P-8 can compete with IL-8 and attenuate its feedback to regulate gene expression of IL-8, CXCR1 and CXCR2 decreased.

[3] = tested on: LL/2 cells (Lewis lung carcinoma); assay: Matrigel transwell invasion assay; type: cell-based, mouse; conditions: RISE P-8 200 ng/ml, 24 hr
Protocol: Lewis lung carcinoma (LL/2) is a cell line established from the lung of a C57BL mouse bearing a tumor resulting from an implantation of primary Lewis lung carcinoma.
Please refer to FIG. 13A and FIG. 13B, the present invention also represented invasion of LL/2 cells (Louis lung carcinoma) treated with CXCL8, MIP-2 or RISE P-8. The character of LL/2 cancer cell is very prone to invasion into lung and grows rapidly. The LL/2 cells were seeded onto Matrigel-coated polycarbonate filters to analyze their invasive potentials. The cells were then incubated for 24 hr in chambers and were analyzed by staining PI and counted under a microscope. Representative fields of invasive cells on the transwell membrane (at 100× magnification) and the invasion rate were shown. The LL/2 cells treated with CXCL8 (100 ng/ml), RISE P-8 (200 ng/ml), or MIP-2 (50 ng/ml) respectively. […] MIP-2 is the CXCL8 homologues in murine.

human neutrophil = assay: Modified Boyden chamber neutrophil chemotaxis to CXCL8; type: cell-based; conditions: CXCL8 combined with RISE P-8 in lower compartment
Protocol: Please refer to FIG. 5, neutrophil chemotaxis was assessed using modified Boyden chamber microchemotaxis assays. The CXCL8 alone or combined with RISE P-8, were placed in the lower compartment of the Boyden chamber wells and purified neutrophil in the upper compartment. The migrated neutrophil were lysed and detected. The percentages of neutrophil migration were assessed and presented with Chemotaxis Index (CI) value. That is to say, CI=(intensityRISE P-8−intensityHBSS)/(intensityCXCL8−intensityHBSS)×100%.

IL-8 in PC9 = assay: IL-8 protein expression in 3D (suspended) culture; type: cell-based, human; conditions: PC9, RISE P-8 200 ng/ml, 24 hrs, 2D vs suspended
Protocol: (§2) Cells underwent serum-free 16-18 hr and suspended into 10^6 cells/mL in growth medium. 2×10^6 cells/well were seeded in coating/non-coating 6 well plates and treated with/without RISE P-8 (200 ng/ml) for 24 hrs.

IL-8 in PC9GR = assay: IL-8 protein expression in 3D (suspended) culture; type: cell-based, human; conditions: RISE P-8 200 ng/ml, 24 hrs, 2D vs suspended
Protocol: as §2

PC9GR [4] = assay: Colony formation assay; type: cell-based, human; conditions: RISE P-8 200 ng/mL with Gefitinib 5 μM, vs control group and IL-8 group
Protocol: (§3) The colony formation assay was also performed to evaluate cell proliferation.

HCC827GR [5] = assay: Colony formation assay; type: cell-based, human; conditions: RISE P-8 200 ng/mL with Gefitinib 5 μM, vs control group and IL-8 group
Protocol: as §3

PC9GR [6] = assay: Matrigel transwell invasion assay; type: cell-based, human
Protocol: (§4) The invasion ability of cell was performed by using 8 μm pore size transwell (Corning FluoroBlok™). The transwell insert was coated with 60 μl matrigel (300 μg/ml in serum-free medium, BD Bioscience) overnight at 37° C. in 5% CO2 atmosphere. 2.5×10^4 cells in 0.2 mL of serum-free growth medium were seeded into the upper chamber coated with matrigel and then treated with drugs IL-8 (100 ng/ml) with/without RISE P-8 (200 ng/ml). After incubation for 24 hrs at 37° C. in 5% CO2, membrane of upper chamber was fixed with methanol and stained with propidium iodide (PI). The invasive cells in the bottom of membrane were imaged and counted by using an inverted fluorescence microscope (Observer.Z1, Zeiss) in five random fields of each specimen (magnification, ×100).

HCC827GR [7] = assay: Matrigel transwell invasion assay; type: cell-based, human
Protocol: as §4

[8] = IL-8 100 ng/mL + RISE P-8 200 ng/mL vs IL-8 group
[9] = RISE P-8 200 ng/mL, Gefitinib 5 μM, 24 hrs, vs control group

Molecule | IL-8, CXCR1 and CXCR2 mRNA expression ([1]; 5 μM Gefitinib, 24 hrs) | CXCR1 and CXCR2 mRNA expression ([1]; gefitinib 5 μM, 24 hours) | IL-8 mRNA expression ([1]; gefitinib 5 μM, 24 hours) | IL-8, CXCR1 and CXCR2 mRNA expression [2] | invasion rate, CXCL8 stimulated ([3]; LL/2, CXCL8 100 ng/ml) | number of invasive cells, MIP-2 induced ([3]; LL/2, MIP-2 50 ng/ml) | neutrophil chemotaxis (Chemotaxis Index) (human neutrophil) | IL-8 protein expression (autocrine secretion) (IL-8 in PC9) | IL-8 protein expression (autocrine secretion) (IL-8 in PC9GR) | colony formation rate (PC9GR [4]) | colony formation rate (HCC827GR [5]) | invasion rate, IL-8 stimulated (PC9GR [6]; [8]) | invasion rate (PC9GR [6]; [9]) | invasion rate, IL-8 stimulated (HCC827GR [7]; [8]) | invasion rate (HCC827GR [7]; [9])
COc1cc2ncnc(Nc3ccc(F)c(Cl)c3)c2cc1OCCCN1CCOCC1 [Gefitinib] | significantly enhanced | increased | increased | significantly enhanced | – | – | – | – | – | – | – | – | – | – | –
B1 | – | – | – | – | significantly suppressed CXCL8 stimulated cell invasion | significantly decreased the number of invasive cells | effectively antagonize neutrophil response to CXCL8 | significantly attenuate IL-8 autocrine only in suspended culture | significantly attenuate IL-8 autocrine only in suspended culture | slow down significantly | slow down significantly | prevent significantly invasion rate | decreases invasion rate | prevent significantly invasion rate | decreases invasion rate
